Experimental data taken from article PMC9253678, “Computer-Aided Design of α-L-Rhamnosidase to Increase the Synthesis Efficiency of Icariside I” (Frontiers in Bioengineering and Biotechnology, 2022).

B1: TpeRha (Thermotoga petrophila RKU-1; D506A/K579A) (protein)
chain: MIQACDLRCEYLTSPVLGLDVIPRFSWRLKGNGKKQTRYKIIVSDNFDDIERGIGNVWESEKDSSKNLNIEYEGPKLKAYKGYYWRVKLWDEKENGPWSETAYFEMGPLEDWRGKWITMPSPLSFKDPAHRHELFYAMYFRKEFLLNKEVEKARVYVSGLGVYELHLNGKRVGNNVLDPAPTDYNKVALYSTYDVTQYLTTGKNTIGVILGNGRHIRDYGYSKPKLYLQLLVFYKDGSREFICSDETWKVSHGPLKENGIYFGEVYDARDEISGWDSPGFDDRNWSEVEIVEGPSLKAQLIPVIRVCEVIKPKRLWLSSRGTFIVDFGKNISGWVKLRVNNGKRGEKIIIRYAEVLDPSMDRLDTRNLRLARATDEYILKGQGVEIYEPRFTYHGFRYVEVEDYPGTLTSDNIEAMFVHTDVEKVGDFACSSELLNKIHSCVVNSQLANLMGIPTDCPQRDERMGWLGDAQLTVEEAMYNFDMAAFYTKYLMDIKLSQKEDGSISAVAPPYWKRYPSDPAWGTAYATILWYLYFFYEDRRVLEEHYDSLKRYVEFLRKNSPNHLTKLGQHGDWCPPGDAFPKRTPLILTSTWYYYHDTLILSEIAKILGKKEDEHEYRKLAGEIKEAFNRHFLRKVEDHTGRIVCFYRGIKLSPKDRIPTTQTCNVLPLWNKMVPEECREDVFKVLERLIEVDNDTHFDTGIVGTRYILEVLSENGRKDLALKLLLKEDYPSFGYMIKNGATTLWERWEKLEGTGMNSHNHVMLGSVDTWFYKYLSGIKPVAPGWKKIRIEPYFADQIDFVSAKIKTPNGSLEVSWKKQNKEYEIQIIIPVNTVGIFAVPESFKVSAINSKQVSYPSEFELEPGAYNIVLERVREC
notes: codon-optimized synthetic gene in pET-28a, E. coli BL21(DE3), Ni-NTA purified (His tag of vector); model domains span 1-861
B2: TpeRha (Thermotoga petrophila RKU-1; H570A/K579A) (protein)
chain: MIQACDLRCEYLTSPVLGLDVIPRFSWRLKGNGKKQTRYKIIVSDNFDDIERGIGNVWESEKDSSKNLNIEYEGPKLKAYKGYYWRVKLWDEKENGPWSETAYFEMGPLEDWRGKWITMPSPLSFKDPAHRHELFYAMYFRKEFLLNKEVEKARVYVSGLGVYELHLNGKRVGNNVLDPAPTDYNKVALYSTYDVTQYLTTGKNTIGVILGNGRHIRDYGYSKPKLYLQLLVFYKDGSREFICSDETWKVSHGPLKENGIYFGEVYDARDEISGWDSPGFDDRNWSEVEIVEGPSLKAQLIPVIRVCEVIKPKRLWLSSRGTFIVDFGKNISGWVKLRVNNGKRGEKIIIRYAEVLDPSMDRLDTRNLRLARATDEYILKGQGVEIYEPRFTYHGFRYVEVEDYPGTLTSDNIEAMFVHTDVEKVGDFACSSELLNKIHSCVVNSQLANLMGIPTDCPQRDERMGWLGDAQLTVEEAMYNFDMAAFYTKYLMDIKLSQKEDGSISDVAPPYWKRYPSDPAWGTAYATILWYLYFFYEDRRVLEEHYDSLKRYVEFLRKNSPNHLTKLGQAGDWCPPGDAFPKRTPLILTSTWYYYHDTLILSEIAKILGKKEDEHEYRKLAGEIKEAFNRHFLRKVEDHTGRIVCFYRGIKLSPKDRIPTTQTCNVLPLWNKMVPEECREDVFKVLERLIEVDNDTHFDTGIVGTRYILEVLSENGRKDLALKLLLKEDYPSFGYMIKNGATTLWERWEKLEGTGMNSHNHVMLGSVDTWFYKYLSGIKPVAPGWKKIRIEPYFADQIDFVSAKIKTPNGSLEVSWKKQNKEYEIQIIIPVNTVGIFAVPESFKVSAINSKQVSYPSEFELEPGAYNIVLERVREC
notes: as for B1

Substrate: COc1ccc(-c2oc3c(CC=C(C)C)c(O[C@@H]4O[C@H](CO)[C@@H](O)[C@H](O)[C@H]4O)cc(O)c3c(=O)c2O[C@@H]2O[C@@H](C)[C@H](O)[C@@H](O)[C@H]2O)cc1
Experiment: HPLC of icariside I formation, Michaelis-Menten nonlinear fit
Format: biochemical, Thermotoga petrophila
Conditions: pH 4.6, icariin 0.1–4 mg/ml
From the text: HPLC of icariside I formation, Michaelis-Menten nonlinear fit on […]

[1] = optimal conditions of the mutant: 70°C
[2] = optimal conditions of the mutant: 80°C

Protein | Km [1] [µM] | Vmax [1] [µM/min] | kcat [1] [s⁻¹] | kcat/Km [1] [M⁻¹ s⁻¹] | Km [2] [µM] | Vmax [2] [µM/min] | kcat [2] [s⁻¹] | kcat/Km [2] [M⁻¹ s⁻¹]
B1 | 1.39 ± 0.45 | 1.37 | 5.68e-05 | 40.9 |  |  |  | 
B2 |  |  |  |  | 0.93 ± 0.08 | 5.56 | 0.000118 | 127
